Test results reported in patent US8361484B2, “Polymer systems for lung volume reduction therapy” (Aeris Therapeutics, Inc., priority 2006, dated 2013).

Assay: PVA hydrogel durability in phosphate buffered saline pH 7.4, integrity checked by periodic inversion
Type: physicochemical
Conditions: additive at 10%; 4% borate; PBS pH 7.4, room temperature
Protocol: The effect of the PVA (99% hydrolysis rate; average molecular weight 100K) concentration on gel durability was evaluated by first aliquotting 0.2 mL of a 4% borate solution into bottom of 14 mL tube. Then 1.8 mL of various PVA solutions of 2-5% concentrations were added by vigorous injection through a 3 mL syringe with an 18G needle. Three tubes were prepared for of each concentration and cured at room temperature for one hour to insure complete polymerization. 8 mL of phosphate buffered saline, pH 7.4, were added to each tube, covered and incubated at room temperature. The integrity of the gels was checked by periodic inversion.
The effect of additives on the durability of the PVA gel (99% hydrolysis rate; average molecular weight 100K) was evaluated by first aliquotting 0.2 mL of a 4% borate solution into bottom of 14 mL tube. Then 1.8 mL of PVA (5%) and additive containing solutions of 2-5% concentrations were added by vigorous injection through a 3 mL syringe with an 18G needle. Three tubes were prepared for of each concentration and cured at room temperature for one hour to insure complete polymerization. 8 mL of phosphate buffered saline, pH 7.4, were added to each tube, covered and incubated at room temperature. The integrity of the gels was checked by periodic inversion. […]

albumin
Effect of additive on durability of 5% PVA hydrogels: increase the durability
